These results are taken from patent US20250152729A1 (CANCER RESEARCH TECHNOLOGY, published 2025).

Where a chain is given by its changes, count along the chain named. Names may count otherwise.

Sequences and labels used below:
B1: mouse 5E3 expressed as human IgG1 Alya (antibody, V domains shown)
VH: QVQLQQPGAELVMPGASVKMSCKASGYTFTDYWMHWVKQRPGQGLEWIGAIDTSDSYTSYNQKFKGKATLTVDESSSTAYMQLSSLTSEDSAVYYCARDYGNFYYYAMDYWGQGTSVTVSS
VL: QAVVTQESALTTSPGETVTLTCRSSTGAVTTSNYANWVQEKPDHLFTGLIGGTNNRAPGVPARFSGSLIGDKAALTITGAQTEDEAIYFCALWYSNHWVFGGGTKLTVL
notes: Mouse variable domains on human IgG1 Alya constant (pEU1.22; 239iCys and S442C, EU numbering); purified, unconjugated; also called 5E3 IgG1 Alya
B2: 5Hg2-5Lg1 human Alya IgG1 (antibody, V domains shown)
VH: QVQLVQSGAEVKKPGASVKVSCKASGYTFTDYWMHWVRQAPGQRLEWMGAIDTSDSYTSYNQKFKGRVTITRDTSASTAYMELSSLRSEDTAVYYCARDYGNFYYYAMDYWGQGTLVTVSS
VL: QAVVTQEPSLTVSPGGTVTLTCRSSTGAVTTSNYANWFQQKPGQAPRTLIYGTNNRAPWTPARFSGSLLGGKAALTLSGAQPEDEAEYYCALWYSNHWVFGGGTKLTVL
notes: Humanised 5E3; human IgG1 Alya constant (239iCys, S442C, EU), lambda light chain; purified, unconjugated
B3: 5Hg2-5Lg3 human Alya IgG1 (antibody, V domains shown)
VH: B2 VH
VL: QTVVTQEPSFSVSPGGTVTLTCRSSTGAVTTSNYANWYQQTPGQAPRTLIYGTNNRAPGVPDRFSGSILGNKAALTITGAQADDESDYYCALWYSNHWVFGGGTKLTVL
notes: as for B2
B4: 5Hg1-5Lg1 human Alya IgG1 (antibody, V domains shown)
VH: B2 VH with R44G, I70M, A76T, A79V
VL: B2 VL
notes: as for B2
B5: 5Hg2-5Lg2 human Alya IgG1 (antibody, V domains shown)
VH: B2 VH
VL: B2 VL with S78L
notes: as for B2
B6: 5Hg1-5Lg2 human Alya IgG1 (antibody, V domains shown)
VH: B2 VH with R44G, I70M, A76T, A79V
VL: B2 VL with S78L
notes: as for B2
B7: 5Hg4-5Lg5 human Alya IgG1 (antibody, V domains shown)
VH: QVQLVQSGSELKKPGASVKVSCKASGYTFTDYWMHWVRQAPGQGLEWMGAIDTSDSYTSYNQKFKGRFVFSLDTSVSTAYLQICSLKAEDTAVYYCARDYGNFYYYAMDYWGQGTLVTVSS
VL: QSVVTQPPSVSGAPGQRVTISCRSSTGAVTTSNYANWYQQLPGTAPKLLIYGTNNRAPGVPDRFSGSKSGASASLAITGLQAEDEADYYCALWYSNHWVFGGGTKLTVL
notes: as for B2
B8: C0120917 human Alya IgG1 (antibody, V domains shown)
VH: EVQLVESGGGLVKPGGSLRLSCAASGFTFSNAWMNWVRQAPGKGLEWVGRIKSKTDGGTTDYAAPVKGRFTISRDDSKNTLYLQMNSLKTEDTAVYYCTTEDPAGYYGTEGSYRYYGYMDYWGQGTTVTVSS
VL: NFMLTQPHSVSESPGKTVTISCTASGDTLDNKYVNWYQVRPGSAPATLIFHYEERDSGVPDRFSGSFDASSNSASLTISGLQTADEADYFCQSYDSKRDNLVVFGGGTKVTVL
notes: Fully human, phage display derived; human IgG1 Alya constant (239iCys, S442C, EU); unconjugated
B9: C0120906 human Alya IgG1 (antibody, V domains shown)
VH: EVQLVQSGPEVKKPGASVKISCKASGYKLNDPGVHGVSWVRQAPGQGLEWMGWISTLNGDTRYAQKFQGRVTMATDSSTSTIYMDLRSLKSDDTALYYCARDDYTAIFDFWGRGTLVTVSS
VL: QSVLTQPPSVSVAPGQTASITCGGSNIGSQSVHWYQQKPGQAPVLVVYDDSDRPSGIPERFSGSKSGNTASLILSRVEAGDEADYYCQVWDSSTDHHVFGTGTKVTVL
notes: as for B8
B10: C0120918 human Alya IgG1 (antibody, V domains shown)
VH: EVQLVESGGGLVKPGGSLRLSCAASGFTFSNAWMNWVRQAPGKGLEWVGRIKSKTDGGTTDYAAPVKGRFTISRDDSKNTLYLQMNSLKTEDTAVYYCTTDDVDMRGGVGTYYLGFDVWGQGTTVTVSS
VL: SYELTQPPSVSVSPGQTARITCSGDALPKQYAYWYQQKPGQAPVLVIYKDSERPSGIPERFSGSSSGTTVTLTISGVQAEDEADYYCQSADSSGTWVFGGGTKVTVL
notes: as for B8
B11: C0120903 human Alya IgG1 (antibody, V domains shown)
VH: EVQLVQSGAEVKKPGSSMKVSCKASGGTFNSYTINWVRQAPGQGLEWVGGFIPIFGTADYAQKFHGRVAITADESMSTAYMELSSLRSEDTAVYYCARAPLGSEPFDYWGQGTMVTVSS
VL: SYVLTQPPSVSVAPGQTARITCGGNNIGSKSVHWYQQKPGQAPVLVVYDDSDRPSGIPERFSGSNSGNTATLTISRVEAGDEADYYCQVWDSSSDHLVFGGGTKLTVL
notes: as for B8
B12: C0120905 human Alya IgG1 (antibody, V domains shown)
VH: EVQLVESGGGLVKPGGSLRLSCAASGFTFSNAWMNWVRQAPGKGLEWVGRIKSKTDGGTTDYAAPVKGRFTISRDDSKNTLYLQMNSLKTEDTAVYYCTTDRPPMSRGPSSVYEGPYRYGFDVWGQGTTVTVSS
VL: NFMLTQPHSVSESPGKTVTISCTGSGGNIVDNFVQWHQQRPGSAPRTVIYEDDQRPSGVPDRFSASVDSSSNSGTLSISGLKTEDEADYYCQSYDGANRWVFGGGTKLTVL
notes: as for B8
B13: C0120914 human Alya IgG1 (antibody, V domains shown)
VH: QVQLQESGPGLVKPSETLSLTCTVSGGSVSSGRYDWSWIRQPPGKGLEWIGHIYYTGITDYNPSLRSRVTISADKPKNQFSLKLNSVTAADTAVYYCARGPFFDPWGQGTMVTVSS
VL: QSVLTQPPSVSVAPGQTASLTCGANNIGSKSVQWYQQKPGQAPVLVVYDGSDRPSGIPDRFSGSSSENTATLTISRVEAGDEADYYCQLWDSVTDRPVFGGGTKVTVL
notes: as for B8

The first experiment deals with T1, human SEMA4A expressed on cells (UniProt ID Q9H3S1, isoform 1) (human, UniProt Q9H3S1 33-761).
T1 sequence: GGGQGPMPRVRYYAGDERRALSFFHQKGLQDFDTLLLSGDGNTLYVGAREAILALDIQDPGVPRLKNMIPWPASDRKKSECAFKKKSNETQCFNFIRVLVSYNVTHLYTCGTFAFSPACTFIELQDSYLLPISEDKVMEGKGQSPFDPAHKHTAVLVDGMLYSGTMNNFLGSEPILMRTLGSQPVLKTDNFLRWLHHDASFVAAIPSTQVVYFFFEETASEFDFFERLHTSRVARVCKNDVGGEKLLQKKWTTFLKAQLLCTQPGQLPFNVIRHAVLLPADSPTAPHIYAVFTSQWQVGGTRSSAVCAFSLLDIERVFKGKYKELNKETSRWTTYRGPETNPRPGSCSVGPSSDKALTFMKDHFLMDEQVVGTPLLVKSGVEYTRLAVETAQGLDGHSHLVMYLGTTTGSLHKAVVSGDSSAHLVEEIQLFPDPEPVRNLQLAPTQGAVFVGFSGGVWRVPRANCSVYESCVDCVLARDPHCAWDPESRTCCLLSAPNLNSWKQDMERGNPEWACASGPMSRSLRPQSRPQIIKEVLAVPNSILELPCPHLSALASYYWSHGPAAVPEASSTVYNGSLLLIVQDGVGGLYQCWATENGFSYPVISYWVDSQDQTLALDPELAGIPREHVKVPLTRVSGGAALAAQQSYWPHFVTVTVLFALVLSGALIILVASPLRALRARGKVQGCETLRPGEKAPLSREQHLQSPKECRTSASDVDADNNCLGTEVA
Put plainly: cell-based or functional assay.
Regarding B1, the “IC50 (pM), Fab-ZAP cell kill, NCI-H929” value was 38 pM and the “Max % Cell Kill, Fab-ZAP, NCI-H929” value was 89%.

With B2, the “IC50 (pM), Fab-ZAP cell kill, NCI-H929” value turned out to be 38 pM and the “Max % Cell Kill, Fab-ZAP, NCI-H929” value worked out at 78%.

Consider B3, for which the “IC50 (pM), Fab-ZAP cell kill, NCI-H929” value was determined as 113 pM and the “Max % Cell Kill, Fab-ZAP, NCI-H929” value stood at 58%.

As for B4, the “IC50 (pM), Fab-ZAP cell kill, NCI-H929” value worked out at 66 pM and the “Max % Cell Kill, Fab-ZAP, NCI-H929” value stood at 76%.

Regarding B5, the “IC50 (pM), Fab-ZAP cell kill, NCI-H929” value came to 52 pM and the “Max % Cell Kill, Fab-ZAP, NCI-H929” value was 83%.

As to B6, the “IC50 (pM), Fab-ZAP cell kill, NCI-H929” value came to 74 pM and the “Max % Cell Kill, Fab-ZAP, NCI-H929” value worked out at 74%.

For the molecule B7, the “IC50 (pM), Fab-ZAP cell kill, NCI-H929” value came to 119 pM and the “Max % Cell Kill, Fab-ZAP, NCI-H929” value came out at 50%.

The target in another experiment is T2, mouse SEMA4A expressed on expi293 cells (UniProt ID Q62178) (mouse, UniProt Q62178 33-760).
T2 construct: Transient transfection in expi293 cells
T2 sequence: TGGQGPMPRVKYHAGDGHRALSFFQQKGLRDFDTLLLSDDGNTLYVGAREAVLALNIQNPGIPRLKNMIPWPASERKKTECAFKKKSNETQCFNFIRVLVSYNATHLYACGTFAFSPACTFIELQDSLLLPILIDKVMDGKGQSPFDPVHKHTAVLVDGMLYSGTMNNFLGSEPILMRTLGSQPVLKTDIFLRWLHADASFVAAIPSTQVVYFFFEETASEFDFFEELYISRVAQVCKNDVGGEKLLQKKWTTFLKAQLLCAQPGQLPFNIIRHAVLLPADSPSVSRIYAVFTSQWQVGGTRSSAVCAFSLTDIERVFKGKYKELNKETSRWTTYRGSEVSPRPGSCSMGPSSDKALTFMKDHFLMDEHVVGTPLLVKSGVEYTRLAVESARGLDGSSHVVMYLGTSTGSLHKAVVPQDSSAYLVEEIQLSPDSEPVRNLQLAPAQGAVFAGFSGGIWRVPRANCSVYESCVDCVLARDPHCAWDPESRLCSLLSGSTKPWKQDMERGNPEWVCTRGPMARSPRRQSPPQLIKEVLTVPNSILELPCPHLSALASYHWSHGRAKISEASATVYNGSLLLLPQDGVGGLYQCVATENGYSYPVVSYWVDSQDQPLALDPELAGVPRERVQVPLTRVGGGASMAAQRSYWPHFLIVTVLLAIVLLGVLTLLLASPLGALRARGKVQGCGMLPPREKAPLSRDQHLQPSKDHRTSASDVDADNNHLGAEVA
The experiment is described as follows: Mirrorball direct binding, dilution series on expi293 cells transiently transfected with mouse SEMA4A, anti-human Alexa Fluor 647.
With B1, the binding result is “binds”.

In the case of B8, the binding result is “binds”.

B9: the binding result is recorded as “binds”.

For the molecule B10, the binding result was “binds”.

For B2, the binding result is recorded as “binds”.

As for B3, the binding result was “binds”.

B4: the binding result is recorded as “binds”.

B5: the binding result is recorded as “binds”.

On to B6, for which the binding result was “binds”.

For the molecule B11, the binding result is given as “binds”.

As for B7, the binding result was “binds”.

Turning to B12, the binding result is listed as “binds”.

For the molecule B13, the binding result is “binds”.

The target in another experiment is T1, human SEMA4A expressed on cells …. Put plainly: Mirrorball epitope competition on MM.1S cells; competitor: fixed 5E3 mouse IgG1. From the text: The 5E3 epitope competition assay assessed the ability of the un-purified IgGs expressed in a human IgG1 backbone to compete for binding to the mouse 5E3 epitope on human SEMA4A endogenously expressed by MM.1S cells, a human multiple myeloma cell line. The assay utilised a secondary-Alexa Fluor 647 conjugate, 5E3 expressed in a mouse IgG1 (A) backbone (BioLegend®, San Diego, CA, 148402) and a Mirrorball fluorescence cytometer (SPT Labtech, UK). Binding of 5E3 mouse IgG1 to MM.1S cells was measured via an anti-mouse secondary labelled with Alexa Fluor 647 (Invitrogen, A21235) in the presence of a single concentration of each un-purified human IgG1. […] 10 μl undiluted un-purified IgG, contained in Expi293 expression medium (Gibco, UK, A1435101), were added to the assay plate (Greiner Bio-one, UK, 781906), followed by 10 ul of 1.2 nM 5E3 mouse IgG1 and 20 μl MM.1S cell suspension containing 1,500 cells that was spiked with 4 nM anti-mouse Alexa Fluor 647. The assay plate was incubated for 4 hours at room temperature, in the dark prior to reading on a Mirrorball fluorescence cytometer (SPT Labtech, UK) using a 640 nm laser for excitation and measuring emission in the FL-4 channel (650-690 nm). Data was analysed as Count x median mean intensity (x FLU). All dilutions were performed in Hanks' balanced salt solution (Sigma, UK; cat: H8264) containing 0.1% (w/V) BSA (Sigma, UK; cat: A9576). Maximum binding signal was determined by analysing the binding of 5E3 mouse IgG1 to MM.1S cells in the absence of competitor un-purified human IgG1. Background binding signal was determined by analysing the fluorescence generated in the absence of 5E3 mouse IgG1. Data were analysed and graphed using GraphPad Prism software (GraphPad Software, Inc, La Jolla, CA).
Hits from the primary screening were re-formatted into the human Alya IgG1 vector and re-expressed and purified as described in section 4.1. 5E3 epitope competition assay methods are described in section 3.2 and were used to test purified human Alya IgG1s. The purified human Alya IgG1s were diluted to a 4× stock and then serially diluted using 4-fold dilutions to generate a 10 point concentration response curve.
Take B1: the concentration for half-maximal inhibition (IC50) (as a rule, the concentration needed to halve the response being measured) turned out to be 0.3 nM.

In the case of B2, the IC50 was 1.1 nM.

In turn, B3 yielded an IC50 of 11.3 nM.

In the case of B4, the IC50 turned out to be 2 nM.

As for B5, the IC50 stood at 1.1 nM.

The molecule B6 had an IC50 of 2.1 nM.

For B7, the IC50 is 20.4 nM.
